Measurements: PMC11145185, “Inhibition of mRNA nuclear export promotes SARS-CoV-2 pathogenesis” (Proceedings of the National Academy of Sciences of the …, 2024)
Where a chain is given by its changes, count along the chain named. In names and notes the source's numbering stands.

B1: GST-tagged SARS-CoV-2 Nsp1 E55A/E57A/K58E (natural protein)
chain: MESLVPGFNEKTHVQLSLPVLQVRDVLVRGFGDSVEEVLSEARQHLKDGTCGLVAVAEGVLPQLEQPYVFIKRSDARTAPHGHVMVELVAELEGIQYGRSGETLGVLVPHVGEIPVAYRKVLLRKNGNKGAGGHSYGADLKSFDLGDELGTDPYEDFQENWNTKHSSGVTRELMRELNGG
B2: GST-tagged SARS-CoV-2 Nsp1 L27D/V28D (natural protein)
chain: B1 chain with L27D, V28D, A55E, A57E, E58K
notes: also called hydrophobic patch mutant
B3: GST-tagged SARS-CoV-2 Nsp1 E91K/L92A/E93K/I95A (natural protein)
chain: B1 chain with A55E, A57E, E58K, E91K, L92A, E93K, I95A
B4: GST-tagged SARS-CoV-2 Nsp1 N-terminal domain (residues 1 to 129) (domain or fragment)
chain: MESLVPGFNEKTHVQLSLPVLQVRDVLVRGFGDSVEEVLSEARQHLKDGTCGLVEVEKGVLPQLEQPYVFIKRSDARTAPHGHVMVELVAELEGIQYGRSGETLGVLVPHVGEIPVAYRKVLLRKNGNK

Biological target: T1, human NXF1(117-619)-NXT1 heterodimer, wild type (human, UniProt Q9UBU9 117-619; Q9UKK6 1-140)
T1 construct: human NXF1 (mRNA export receptor), residues 117-619; human NXT1, coexpressed with NXF1; also called NXF1-NXT1; mRNA export receptor; source: E. coli Rosetta, coexpressed, purified (details in SI Appendix)
T1 sequence (looked up) 1: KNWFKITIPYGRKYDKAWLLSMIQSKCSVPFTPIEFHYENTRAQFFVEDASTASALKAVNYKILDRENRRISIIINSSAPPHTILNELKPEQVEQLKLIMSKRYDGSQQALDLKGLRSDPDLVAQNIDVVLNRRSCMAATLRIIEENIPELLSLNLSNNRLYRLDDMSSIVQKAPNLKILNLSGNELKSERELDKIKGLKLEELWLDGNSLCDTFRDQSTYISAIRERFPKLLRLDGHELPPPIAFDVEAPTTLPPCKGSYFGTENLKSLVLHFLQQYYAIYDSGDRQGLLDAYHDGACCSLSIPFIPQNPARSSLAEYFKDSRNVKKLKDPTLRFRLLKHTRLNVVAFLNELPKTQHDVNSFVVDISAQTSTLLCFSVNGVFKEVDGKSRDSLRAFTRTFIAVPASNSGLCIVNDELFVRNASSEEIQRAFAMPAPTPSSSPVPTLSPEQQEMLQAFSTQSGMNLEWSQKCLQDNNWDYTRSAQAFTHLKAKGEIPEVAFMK
T1 sequence (looked up) 2: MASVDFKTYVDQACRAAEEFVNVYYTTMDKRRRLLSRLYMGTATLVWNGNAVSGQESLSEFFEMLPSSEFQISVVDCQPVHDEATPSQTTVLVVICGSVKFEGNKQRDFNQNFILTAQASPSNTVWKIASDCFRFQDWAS
Details: both partners purified

| Binder | binding result |
| --- | --- |
| B1 | binds |
| B2 | binds |
| B3 | binds |
| B4 | binds |
